Results published in EP3470428A1 (Numab Innovation AG, dated 2019).

What was measured:
human serum albumin = target: T1, human serum albumin (human, UniProt P02768 25-609); test: SPR (Biacore T200); SA amine-coupled; pH 5.5
T1 construct: Amine-coupled to a CM5 chip; assay at pH 5.5; also called HSA; human SA

[1] = target: human PD-L1-Fc chimeric protein (human, UniProt Q9NZQ7 19-239); test: SPR (Biacore T200); PD-L1-Fc captured by anti-human Fc
biotinylated human PD-L1 [2] = target: T2, biotinylated human PD-L1 (human, UniProt Q9NZQ7 19-238, limits assumed, biotinylated); test: competition ELISA; coated human PD-1 as competitor; biotinylated human PD-L1 pre-incubated with inhibitor
T2 construct: also called biotinylated PD-L1

[3] = target: human PD-L1 expressed on cells (human, UniProt Q9NZQ7 19-290); test: cell-based or functional assay
biotinylated human PD-L1 [4] = target: T2, biotinylated human PD-L1; test: competition ELISA; coated human B7.1 as competitor; biotinylated PD-L1 pre-incubated with inhibitor
[5] = target: human CD137 expressed on cells (human, UniProt Q07011 24-255); test: cell-based or functional assay

B1: PRO966 (= PRO1052): 38_27_C05 sc01 scDb-i/33-03-G02 sc01 scDb-o/19-01-H04-sc03 scFv (other)
chain: DIQMTQSPSSLSASVGDRVTITCQASQSINDYLAWYQQKPGKAPKLLIYKASTLASGVPSRFSGSGSGTDFTLTISSLQPEDFATYYCQQGYIITDIDNVFGTGTKVTVLGGGGGSQVQLQESGPGLVKPSETLSLTCKVSGFSFNNDYDMCWIRQPPGKGLEWIGCIDTGDGSTYYASWAKGRVTISVDSSKNQFSLKLSSVTAADTAVYYCAREAASSSGYGMGYFDLWGQGTLVTVSSGGGGSGGGGSGGGGSGGGGSIQMTQSPSSLSASVGDRVTITCQSSQSVYDNNWLAWYQQKPGKAPKLLIYRASNLASGVPSRFSGSGSGTDFTLTISSLQPEDFATYYCQGTYLSSNWYWAFGTGTKVTVLGGGGGSQVQLQESGPGLVKPSETLSLTCKVSGFSFSSGYDMCWIRQPPGKGLEWIGCVVAGSVDITYYASWAKGRVTISVDSSKNQFSLKLSSVTAADTAVYYCARKDAYSDAFNLWGQGTLVTVSSGGGGSGGGGSIQMTQSPSSLSASVGDRVTITCQSSESVYSNNQLSWYQQKPGQPPKLLIYDASDLASGVPSRFSGSGSGTDFTLTISSLQPEDFATYYCAGGFSSSSDTAFGGGTKLTVLGGGGGSGGGGSGGGGSGGGGSEVQLVESGGGLVQPGGSLRLSCAASGFSLSSNAMGWVRQAPGKGLEYIGIISVGGFTYYASWAKGRFTISRDNSKNTVYLQMNSLRAEDTATYFCARDRHGGDSSGAFYLWGQGTLVTVSS
notes: Trispecific scTriabody (scDb-scFv)
Human serum albumin
  binding result: binds
[1]
  binding result: binds

B2: PRO1059: 33-03-G02 IgG1 LC with 38_02_A04 sc01 scFV, PD-L1/CD137(scFv) silent Morrison (bispecific antibody)
light: DIQMTQSPSSLSASVGDRVTITCQASQSINDYLAWYQQKPGKAPKLLIYKASTLASGVPSRFSGSGSGTDFTLTISSLQPEDFATYYCQQGYIITDIDNVFGTGTKVTVLGTVAAPSVFIFPPSDEQLKSGTASVVCLLNNFYPREAKVQWKVDNALQSGNSQESVTEQDSKDSTYSLSSTLTLSKADYEKHKVYACEVTHQGLSSPVTKSFNRGECGGGGSGGGGSIQMTQSPSSLSASVGDRVTITCQASQSINNVLAWYQQKPGKAPKLLIYRASTLASGVPSRFSGSGSGTDFTLTISSLQPEDFATYYCQSSYGNYGDFGTGTKVTVLGGGGGSGGGGSGGGGSGGGGSQVQLQESGPGLVKPSETLSLTCKVSGFSFSNSYWICWIRQPPGKGLEWIGCTFVGSSDSTYYANWAKGRVTISVDSSKNQFSLKLSSVTAADTAVYYCARHPSDAVYGYANNLWGQGTLVTVSS
heavy: QVQLQESGPGLVKPSETLSLTCKVSGFSFSSGYDMCWIRQPPGKGLEWIGCVVAGSVDITYYASWAKGRVTISVDSSKNQFSLKLSSVTAADTAVYYCARKDAYSDAFNLWGQGTLVTVSSASTKGPSVFPLAPSSKSTSGGTAALGCLVKDYFPEPVTVSWNSGALTSGVHTFPAVLQSSGLYSLSSVVTVPSSSLGTQTYICNVNHKPSNTKVDKRVEPKSCDKTHTCPPCPAPEAAGGPSVFLFPPKPKDTLMISRTPEVTCVVVDVSHEDPEVKFNWYVDGVEVHNAKTKPREEQYNSTYRVVSVLTVLHQDWLNGKEYKCKVSNKALGAPIEKTISKAKGQPREPQVYTLPPSREEMTKNQVSLTCLVKGFYPSDIAVEWESNGQPENNYKTTPPVLDSDGSFFLYSKLTVDKSRWQQGNVFSCSVMHEALHNHYTQKSLSLSPGK
notes: IgG-scFv fusion, scFv on the light chain; also called Morrison-L
Biotinylated human PD-L1 [2]
  IC50: 0.00454 µg/mL
[3]
  IC50 (ng/ml), neutralization of PD-L1/PD-1 interaction, NFAT-luciferase reporter gene assay: 93.8 ng/mL
Biotinylated human PD-L1 [4]
  IC50: 0.029 µg/mL

B3: PRO830 (anti-PD-L1 scFv, CDR set of clone 33-03-G02 grafted on a VH4 framework) (scFv)
chain: DIQMTQSPSSLSASVGDRVTITCQASQSINDYLAWYQQKPGKAPKLLIYKASTLASGVPSRFSGSGSGTDFTLTISSLQPEDFATYYCQQGYIITDIDNVFGTGTKVTVLGGGGGSGGGGSGGGGSGGGGSQVQLQESGPGLVKPSETLSLTCKVSGFSFSSGYDMCWIRQPPGKGLEWIGCVVAGSVDITYYASWAKGRVTISVDSSKNQFSLKLSSVTAADTAVYYCARKDAYSDAFNLWGQGTLVTVSS
Biotinylated human PD-L1 [2]
  IC50: 0.0034 µg/mL
[3]
  IC50 (ng/ml), neutralization of PD-L1/PD-1 interaction, NFAT-luciferase reporter gene assay: 42.9 ng/mL
Biotinylated human PD-L1 [4]
  IC50: 0.0129 µg/mL

B4: PRO963 (= PRO1051): 38_02_A04 sc01 scDb-i/33-03-G02 sc01 scDb-o/19-01-H04-sc03 scFv (other)
chain: DIQMTQSPSSLSASVGDRVTITCQASQSINDYLAWYQQKPGKAPKLLIYKASTLASGVPSRFSGSGSGTDFTLTISSLQPEDFATYYCQQGYIITDIDNVFGTGTKVTVLGGGGGSQVQLQESGPGLVKPSETLSLTCKVSGFSFSNSYWICWIRQPPGKGLEWIGCTFVGSSDSTYYANWAKGRVTISVDSSKNQFSLKLSSVTAADTAVYYCARHPSDAVYGYANNLWGQGTLVTVSSGGGGSGGGGSGGGGSGGGGSIQMTQSPSSLSASVGDRVTITCQASQSINNVLAWYQQKPGKAPKLLIYRASTLASGVPSRFSGSGSGTDFTLTISSLQPEDFATYYCQSSYGNYGDFGTGTKVTVLGGGGGSQVQLQESGPGLVKPSETLSLTCKVSGFSFSSGYDMCWIRQPPGKGLEWIGCVVAGSVDITYYASWAKGRVTISVDSSKNQFSLKLSSVTAADTAVYYCARKDAYSDAFNLWGQGTLVTVSSGGGGSGGGGSIQMTQSPSSLSASVGDRVTITCQSSESVYSNNQLSWYQQKPGQPPKLLIYDASDLASGVPSRFSGSGSGTDFTLTISSLQPEDFATYYCAGGFSSSSDTAFGGGTKLTVLGGGGGSGGGGSGGGGSGGGGSEVQLVESGGGLVQPGGSLRLSCAASGFSLSSNAMGWVRQAPGKGLEYIGIISVGGFTYYASWAKGRFTISRDNSKNTVYLQMNSLRAEDTATYFCARDRHGGDSSGAFYLWGQGTLVTVSS
notes: Trispecific scTriabody (scDb-scFv): PD-L1 x CD137 x serum albumin
[5]
  max. activation (%), NF-kB reporter gene, CHO-PD-L1; HSA: yes, 24h: 369%
[3]
  IC50 (ng/ml), neutralization of PD-L1/PD-1 interaction, NFAT-luciferase reporter gene assay, with HSA: 275 ng/mL
Human serum albumin
  binding result: binds
